Residue numbers refer to the chain shown, from its start. Where two headings read alike, the source gives them in different places.
B1: SRP2193-D02 (antibody, IgG1, V domains shown)
VH: EVQLVESGGGLVQPGGSLRLSCAASGFNIKDYYIHWVRQAPGKGLEWVGAIDPESGSTVYADSVKGRFTISADTSKNTAYLQMNSLRAEDTAVYYCARSRWFRVLWSYVFDYWGQGTLVTVSS
VL: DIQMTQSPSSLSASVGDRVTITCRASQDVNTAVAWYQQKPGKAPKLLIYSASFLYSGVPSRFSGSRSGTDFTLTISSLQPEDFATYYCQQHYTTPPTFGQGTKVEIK
notes: His/FLAG-tagged IgG1, cell-free
B2: SRP2193-D05 (antibody, IgG1, V domains shown)
VH: B1 VH with K30N, Y32H, E54N
VL: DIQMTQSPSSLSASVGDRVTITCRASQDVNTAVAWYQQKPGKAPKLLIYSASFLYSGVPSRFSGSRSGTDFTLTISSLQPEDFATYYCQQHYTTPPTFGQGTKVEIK
notes: His/FLAG-tagged IgG1, cell-free; also called Antibody 78
B3: SRP2193-B01 (antibody, IgG1, V domains shown)
VH: B1 VH with K30G, D31G, E54R, S57Y, Y108F, F110L
VL: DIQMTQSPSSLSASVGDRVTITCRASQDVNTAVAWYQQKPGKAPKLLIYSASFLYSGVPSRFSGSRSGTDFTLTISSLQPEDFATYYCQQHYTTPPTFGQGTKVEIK
notes: as for B1
B4: SRP2193-B06 (antibody, IgG1, V domains shown)
VH: B1 VH with K30D, D31G, G49A, E54H, S55P, S107T
VL: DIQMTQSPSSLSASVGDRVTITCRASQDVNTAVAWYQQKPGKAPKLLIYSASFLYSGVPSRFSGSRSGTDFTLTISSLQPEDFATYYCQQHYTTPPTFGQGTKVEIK
notes: as for B1
B5: SRP2193-B09 (antibody, IgG1, V domains shown)
VH: B1 VH with K30N, D31N, Y32S, A50I, E54N, S55N, V59A, F102Y, F110L
VL: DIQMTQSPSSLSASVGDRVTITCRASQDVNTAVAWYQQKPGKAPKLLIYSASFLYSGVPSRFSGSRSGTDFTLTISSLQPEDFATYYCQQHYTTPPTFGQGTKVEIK
notes: His/FLAG-tagged IgG1, cell-free; also called Antibody 75
B6: SRP2193-B11 (antibody, IgG1, V domains shown)
VH: B1 VH with K30T, D31G, Y32S, E54K, S57F, V59S, V64A, Y108F
VL: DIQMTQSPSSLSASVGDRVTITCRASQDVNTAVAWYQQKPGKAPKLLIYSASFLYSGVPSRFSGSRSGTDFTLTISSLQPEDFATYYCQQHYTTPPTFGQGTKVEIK
notes: His/FLAG-tagged IgG1, cell-free; also called Antibody 100
B7: SRP2193-C02 (antibody, IgG1, V domains shown)
VH: B1 VH with K30S, A50T, E54Q, K76E, Y108F
VL: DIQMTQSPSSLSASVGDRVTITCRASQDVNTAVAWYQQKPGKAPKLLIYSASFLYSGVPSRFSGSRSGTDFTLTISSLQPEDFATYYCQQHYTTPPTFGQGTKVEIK
notes: His/FLAG-tagged IgG1, cell-free; also called Antibody 81
B8: SRP2193-C09 (antibody, IgG1, V domains shown)
VH: B1 VH with S17P, K30N, D31H, Y32S, E54I, F102S
VL: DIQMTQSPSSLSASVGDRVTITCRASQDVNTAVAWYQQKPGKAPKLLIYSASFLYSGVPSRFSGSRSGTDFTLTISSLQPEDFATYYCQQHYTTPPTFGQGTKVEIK
notes: His/FLAG-tagged IgG1, cell-free; also called Antibody 118
B9: SRP2193-C11 (antibody, IgG1, V domains shown)
VH: B1 VH with K30A, Y32S, G49A, A50V, E54K, V59N
VL: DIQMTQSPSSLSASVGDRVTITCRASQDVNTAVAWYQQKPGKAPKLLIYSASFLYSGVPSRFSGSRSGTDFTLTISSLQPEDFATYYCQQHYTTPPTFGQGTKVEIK
notes: as for B1
B10: SRP2193-D04 (antibody, IgG1, V domains shown)
VH: B1 VH with K30N, D31G, Y32F, E54N, S55G, F102Y, V109A
VL: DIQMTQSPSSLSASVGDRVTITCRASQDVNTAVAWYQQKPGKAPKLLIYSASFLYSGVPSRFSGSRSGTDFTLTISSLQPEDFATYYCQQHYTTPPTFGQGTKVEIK
notes: His/FLAG-tagged IgG1, cell-free; also called Antibody 71
B11: SRP2193-D06 (antibody, IgG1, V domains shown)
VH: B1 VH with K30R, G49R, E54H
VL: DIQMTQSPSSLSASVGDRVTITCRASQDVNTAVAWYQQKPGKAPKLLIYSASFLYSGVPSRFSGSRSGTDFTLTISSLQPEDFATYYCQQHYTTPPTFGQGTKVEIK
notes: His/FLAG-tagged IgG1, cell-free; also called Antibody 80
B12: SRP2193-E05 (antibody, IgG1, V domains shown)
VH: B1 VH with D31R, Y32S, G49V, A50S, E54N, S55G, G56S, V59H, F110L
VL: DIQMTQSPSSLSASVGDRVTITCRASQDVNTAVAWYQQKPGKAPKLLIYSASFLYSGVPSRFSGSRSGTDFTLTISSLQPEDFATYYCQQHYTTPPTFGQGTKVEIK
notes: His/FLAG-tagged IgG1, cell-free; also called Antibody 84
B13: SRP2193-E06 (antibody, IgG1, V domains shown)
VH: B1 VH with Q13R, K30D, A50V, E54K, S55N, F68S, S75P, N77S
VL: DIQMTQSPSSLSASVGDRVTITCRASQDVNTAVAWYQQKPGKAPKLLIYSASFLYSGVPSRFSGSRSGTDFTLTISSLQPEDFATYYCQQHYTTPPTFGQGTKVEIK
notes: His/FLAG-tagged IgG1, cell-free; also called Antibody 73
B14: Conjugate 5 (2188-D04-F404-LP8) (antibody, human IgG1, kappa)
heavy: MEVQLVESGGGLVQPGGSLRLSCAASGFNISDYDIHWVRQAPGKGLEWVGGIDPADGSTDYADSVKGRFTISADTSKNTAYLQMNSLRAEDTAVYYCARDYGVYDYWGQGTLVTVSSASTKGPSVFPLAPSSKSTSGGTAALGCLVKDYFPEPVTVSWNSGALTSGVHTFPAVLQSSGLYSLSSVVTVPSSSLGTQTYICNVNHKPSNTKVDKKVEPKSCDKTHTCPPCPAPELLGGPSVFLFPPKPKDTLMISRTPEVTCVVVDVSHEDPEVKFNWYVDGVEVHNAKTKPREEQYNSTYRVVSVLTVLHQDWLNGKEYKCKVSNKALPAPIEKTISKAKGQPREPQVYTLPPSREEMTKNQVSLTCLVKGFYPSDIAVEWESNGQPENNYKTTPPVLDSDGSFLYSKLTVDKSRWQQGNVFSCSVMHEALHNHYTQKSLSLSPGK
light: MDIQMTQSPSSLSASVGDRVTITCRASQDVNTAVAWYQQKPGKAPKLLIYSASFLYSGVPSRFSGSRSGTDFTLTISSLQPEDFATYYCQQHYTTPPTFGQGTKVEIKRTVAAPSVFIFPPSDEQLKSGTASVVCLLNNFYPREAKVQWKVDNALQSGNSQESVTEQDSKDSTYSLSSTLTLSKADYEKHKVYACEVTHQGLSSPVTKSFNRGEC
modifications: pAMF at HC-F404 (the * of the entry), conjugated to LP8 (DBCO-GGG-EDA PNU)
B15: Conjugate 1 (2188-D04-Y180/F404-LP1) (antibody, human IgG1, kappa)
heavy: MEVQLVESGGGLVQPGGSLRLSCAASGFNISDYDIHWVRQAPGKGLEWVGGIDPADGSTDYADSVKGRFTISADTSKNTAYLQMNSLRAEDTAVYYCARDYGVYDYWGQGTLVTVSSASTKGPSVFPLAPSSKSTSGGTAALGCLVKDYFPEPVTVSWNSGALTSGVHTFPAVLQSSGLSLSSVVTVPSSSLGTQTYICNVNHKPSNTKVDKKVEPKSCDKTHTCPPCPAPELLGGPSVFLFPPKPKDTLMISRTPEVTCVVVDVSHEDPEVKFNWYVDGVEVHNAKTKPREEQYNSTYRVVSVLTVLHQDWLNGKEYKCKVSNKALPAPIEKTISKAKGQPREPQVYTLPPSREEMTKNQVSLTCLVKGFYPSDIAVEWESNGQPENNYKTTPPVLDSDGSFLYSKLTVDKSRWQQGNVFSCSVMHEALHNHYTQKSLSLSPGK
light: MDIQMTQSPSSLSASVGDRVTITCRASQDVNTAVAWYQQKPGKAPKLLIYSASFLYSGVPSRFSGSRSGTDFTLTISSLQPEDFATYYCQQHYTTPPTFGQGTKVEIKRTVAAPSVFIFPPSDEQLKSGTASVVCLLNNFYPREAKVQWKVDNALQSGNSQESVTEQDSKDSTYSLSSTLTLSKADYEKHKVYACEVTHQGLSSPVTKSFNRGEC
modifications: pAMF at HC-Y180 and HC-F404 (the * of the entry), conjugated to LP1 (DBCO-Valcit-pAB-hemiasterlin)
B16: Conjugate 2 (2188-D04-Y180/F404/K42-LP1) (antibody, human IgG1, kappa)
heavy: B15 heavy
light: MDIQMTQSPSSLSASVGDRVTITCRASQDVNTAVAWYQQKPGAPKLLIYSASFLYSGVPSRFSGSRSGTDFTLTISSLQPEDFATYYCQQHYTTPPTFGQGTKVEIKRTVAAPSVFIFPPSDEQLKSGTASVVCLLNNFYPREAKVQWKVDNALQSGNSQESVTEQDSKDSTYSLSSTLTLSKADYEKHKVYACEVTHQGLSSPVTKSFNRGEC
modifications: pAMF at LC-K42 (the * of the entry), conjugated to LP1; pAMF at HC-Y180 and HC-F404 (the * of the entry), conjugated to LP1
B17: Conjugate 4 (2188-D04-Y180/F404/K42/E161-LP1) (antibody, human IgG1, kappa)
heavy: B15 heavy
light: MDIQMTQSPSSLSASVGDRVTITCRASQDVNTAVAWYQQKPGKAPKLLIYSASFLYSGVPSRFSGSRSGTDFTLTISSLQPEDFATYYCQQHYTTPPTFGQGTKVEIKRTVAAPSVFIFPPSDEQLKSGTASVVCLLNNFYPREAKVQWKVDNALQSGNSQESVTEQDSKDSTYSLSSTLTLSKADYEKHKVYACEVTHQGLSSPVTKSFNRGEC
modifications: pAMF in place of LC-K42 and LC-E161 (Kabat numbering), conjugated to LP1; pAMF at HC-Y180 and HC-F404 (the * of the entry), conjugated to LP1
B18: Conjugate 6 (2188-D04-Y180/F404-LP10) (antibody, human IgG1, kappa)
heavy: B15 heavy
light: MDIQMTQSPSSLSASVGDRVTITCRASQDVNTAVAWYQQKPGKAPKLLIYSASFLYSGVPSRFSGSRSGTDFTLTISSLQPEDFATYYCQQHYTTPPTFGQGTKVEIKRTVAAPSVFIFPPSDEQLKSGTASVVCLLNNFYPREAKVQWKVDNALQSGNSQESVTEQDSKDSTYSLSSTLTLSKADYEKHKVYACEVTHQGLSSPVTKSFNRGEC
modifications: pAMF at HC-Y180 and HC-F404 (the * of the entry), conjugated to LP10 (DBCO-PEG4-GGFG-aminol-Dxd)
B19: Conjugate 5 (D04-F404-LP8) (antibody, human IgG1, kappa)
heavy: B14 heavy
light: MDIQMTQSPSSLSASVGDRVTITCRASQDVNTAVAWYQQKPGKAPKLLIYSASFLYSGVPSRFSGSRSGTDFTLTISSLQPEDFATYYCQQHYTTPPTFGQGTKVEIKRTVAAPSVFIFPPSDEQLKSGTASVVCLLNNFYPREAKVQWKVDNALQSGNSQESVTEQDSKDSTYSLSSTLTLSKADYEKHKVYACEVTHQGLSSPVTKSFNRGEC
modifications: pAMF at F404 (EU), linked to LP8
B20: Conjugate 37 (D04-F404-LP33) (antibody, human IgG1, kappa)
heavy: B14 heavy
light: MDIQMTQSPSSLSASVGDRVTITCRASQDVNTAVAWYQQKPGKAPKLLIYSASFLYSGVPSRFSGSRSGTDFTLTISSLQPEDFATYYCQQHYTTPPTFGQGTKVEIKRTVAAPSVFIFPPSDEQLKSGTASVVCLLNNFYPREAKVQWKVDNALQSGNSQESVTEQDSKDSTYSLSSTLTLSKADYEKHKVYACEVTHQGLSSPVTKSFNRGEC
modifications: pAMF at F404 (EU), linked to LP33
B21: Conjugate 41 (D04-F404-LP24) (antibody, human IgG1, kappa)
heavy: B14 heavy
light: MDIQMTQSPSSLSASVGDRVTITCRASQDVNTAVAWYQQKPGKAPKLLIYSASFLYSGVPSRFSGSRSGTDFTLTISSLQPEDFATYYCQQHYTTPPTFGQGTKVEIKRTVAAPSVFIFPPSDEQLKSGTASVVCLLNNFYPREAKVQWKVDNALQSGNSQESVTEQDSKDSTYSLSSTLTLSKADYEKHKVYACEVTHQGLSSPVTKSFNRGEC
modifications: pAMF at F404 (EU), linked to LP24
B22: Conjugate 42 (D04-F404-LP25) (antibody, human IgG1, kappa)
heavy: B14 heavy
light: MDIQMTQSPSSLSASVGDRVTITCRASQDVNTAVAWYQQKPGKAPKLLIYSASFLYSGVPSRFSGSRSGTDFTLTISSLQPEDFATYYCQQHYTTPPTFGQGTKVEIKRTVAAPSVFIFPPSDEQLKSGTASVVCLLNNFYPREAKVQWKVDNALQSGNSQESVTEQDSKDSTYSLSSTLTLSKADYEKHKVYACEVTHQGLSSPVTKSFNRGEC
modifications: pAMF at F404 (EU), linked to LP25
B23: Conjugate 43 (D04-F404-LP26) (antibody, human IgG1, kappa)
heavy: B14 heavy
light: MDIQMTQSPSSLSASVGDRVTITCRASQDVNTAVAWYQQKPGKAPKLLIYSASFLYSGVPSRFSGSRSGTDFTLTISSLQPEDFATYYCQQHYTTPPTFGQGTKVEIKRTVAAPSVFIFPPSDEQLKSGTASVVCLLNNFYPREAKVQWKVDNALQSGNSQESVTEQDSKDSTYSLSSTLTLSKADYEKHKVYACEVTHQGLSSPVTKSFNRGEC
modifications: pAMF at F404 (EU), linked to LP26
B24: Conjugate 44 (D04-F404-LP27) (antibody, human IgG1, kappa)
heavy: B14 heavy
light: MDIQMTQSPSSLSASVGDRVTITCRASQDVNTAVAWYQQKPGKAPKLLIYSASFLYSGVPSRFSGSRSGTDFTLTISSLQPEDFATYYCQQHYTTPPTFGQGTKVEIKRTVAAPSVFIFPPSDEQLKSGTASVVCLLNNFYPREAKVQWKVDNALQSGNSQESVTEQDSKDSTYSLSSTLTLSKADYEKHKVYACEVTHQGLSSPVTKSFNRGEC
modifications: pAMF at F404 (EU), linked to LP27
B25: Conjugate 45 (D04-F404-LP28) (antibody, human IgG1, kappa)
heavy: B14 heavy
light: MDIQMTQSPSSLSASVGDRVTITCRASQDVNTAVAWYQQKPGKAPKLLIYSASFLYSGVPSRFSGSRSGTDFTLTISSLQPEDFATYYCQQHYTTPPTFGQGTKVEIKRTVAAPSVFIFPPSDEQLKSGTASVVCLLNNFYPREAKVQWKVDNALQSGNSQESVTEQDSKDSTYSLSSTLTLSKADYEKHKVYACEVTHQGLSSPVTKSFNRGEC
modifications: pAMF at F404 (EU), linked to LP28

Tests used:
human ROR1 (hROR1) [1] = biological target: T1, human ROR1 (hROR1) (human, UniProt Q01973 30-937); assay: flow cytometry, HCT116-hROR1 cells
T1 construct: On HCT116-hROR1 transfectants, Mino cells or Ntera-2 cells, as the assay of each row says; also called receptor tyrosine kinase like orphan receptor 1

human ROR1 (hROR1) [2] = biological target: T1, human ROR1 (hROR1); assay: cell-based or functional assay
[3] = biological target: T2, human ROR1 Frizzled domain (hROR1-Fz) (human, UniProt Q01973 165-305); assay: SPR Biacore, IgG on anti-Fc, ROR1-Fz analyte
T2 construct: Acro Biosystems, made in HEK293
Outline: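 Test antibodies captured on an anti-Fc surface (CM5 chip), then analyte bound for 180 s with 600 s dissociation at 25° C in HBS-EP+ buffer at 50 μL/min. Human ROR1 ECD, Frizzled or Kringle domain used as analyte; regeneration with 10 mM glycine pH 2.0.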

human ROR1 (hROR1) [4] = biological target: T1, human ROR1 (hROR1); assay: cell-based or functional assay; remark: listed apart in the source
[5] = biological target: T3, receptor tyrosine kinase orphan receptor 1 (ROR1) on Ntera-2 cells (human, UniProt Q01973 30-937); assay: cell-based or functional assay
[6] = biological target: T3, receptor tyrosine kinase orphan …; assay: cell-based or functional assay; remark: listed apart in the source

Row | Binder | Bmax (MFI) (human ROR1 (hROR1) [1]) | Kd (human ROR1 (hROR1) [1]) [nM] | Mino Nb-PBD, drug-conjugated 2° antibody Cell Killing EC50 (human ROR1 (hROR1) [2]) [nM] | Mino Nb-PBD, drug-conjugated 2° antibody Cell Killing Span (human ROR1 (hROR1) [2]) [%] | Kd [3] [nM] | koff [3] [s⁻¹] | kon [3] [M⁻¹ s⁻¹] | cell killing on ROR1 positive NTERA-2 cells, EC50 (human ROR1 (hROR1) [4]) [nM] | cell killing on ROR1 positive NTERA-2 cells, Span (human ROR1 (hROR1) [4]) [%] | cell killing EC50, NTERA-2 cells [5] [nM] | cell killing Span, NTERA-2 cells [5] [%] | cell killing EC50, NTERA-2 cells [6] [nM] | cell killing Span, NTERA-2 cells [6] [%]
1 | B1 | 15500 | 1.22 | 0.0038 | 61 | 6.94 | 0.00101 | 146000 | – | – | – | – | – | –
2 | B2 | 15800 | 1.64 | 0.0042 | 59 | 2.89 | 0.000331 | 114000 | – | – | – | – | – | –
3 | B3 | 15300 | 0.15 | 0.0023 | 66 | 1.13 | 0.000178 | 158000 | – | – | – | – | – | –
4 | B4 | 14600 | 1.7 | 0.0027 | 65 | 5.31 | 0.000487 | 91700 | – | – | – | – | – | –
5 | B5 | 15200 | 0.23 | 0.0029 | 67 | 1.9 | 0.000226 | 119000 | – | – | – | – | – | –
6 | B6 | 15200 | 0.46 | 0.0013 | 66 | 1.59 | 0.000251 | 158000 | – | – | – | – | – | –
7 | B7 | 15800 | 0.85 | 0.0034 | 62 | 6.2 | 0.00173 | 278000 | – | – | – | – | – | –
8 | B8 | 15500 | 0.35 | 0.0016 | 64 | 2.22 | 0.000394 | 178000 | – | – | – | – | – | –
9 | B9 | 15700 | 0.64 | 0.0015 | 63 | 2.37 | 0.000273 | 115000 | – | – | – | – | – | –
10 | B10 | 15000 | 0.7 | 0.0045 | 65 | 2.81 | 0.000292 | 104000 | – | – | – | – | – | –
11 | B11 | 14300 | 0.28 | 0.0057 | 68 | 101 | 0.6 | 5.94e+06 | – | – | – | – | – | –
12 | B12 | 18300 | 0.1 | 0.00034 | 70 | 0.674 | 0.000199 | 295000 | – | – | – | – | – | –
13 | B13 | 14700 | 5.82 | 0.0025 | 63 | 2.23 | 0.000246 | 111000 | – | – | – | – | – | –
14 | B14 | – | – | – | – | – | – | – | 0.0101 | 83 | – | – | – | –
15 | B15 | – | – | – | – | – | – | – | > 10 | < 20 | – | – | – | –
16 | B16 | – | – | – | – | – | – | – | 0.082 | 49 | – | – | – | –
17 | B17 | – | – | – | – | – | – | – | 0.022 | 63 | – | – | – | –
18 | B18 | – | – | – | – | – | – | – | 0.08 | 53 | – | – | – | –
19 | B19 | – | – | – | – | – | – | – | – | – | 0.013 | 83 | 0.021 | 85
20 | B20 | – | – | – | – | – | – | – | – | – | 0.01 | 89 | – | –
21 | B21 | – | – | – | – | – | – | – | – | – | > 10 | < 10 | – | –
22 | B22 | – | – | – | – | – | – | – | – | – | 0.075 | 58 | – | –
23 | B23 | – | – | – | – | – | – | – | – | – | > 10 | < 10 | – | –
24 | B24 | – | – | – | – | – | – | – | – | – | 0.017 | 80 | – | –
25 | B25 | – | – | – | – | – | – | – | – | – | > 10 | < 10 | – | –
